This data set has as its target GST-OsMADS1 (Oryza sativa, UniProt Q10PZ9 1-257). Briefly: EMSA; 10x and 50x unlabeled probe as competitor; LightShift Chemiluminescent EMSA Kit (Thermo 20148); buffer, salt, pH and temperature not stated. To be noted: protein: recombinant; tags: N-terminal GST (pGEX-4T-1); chain copies: 2; label: biotin; blunt. A general note: In EMSA bound probe runs differently from free probe, usually more slowly.

GST-OsMADS1, sequence (Q10PZ9 whole entry): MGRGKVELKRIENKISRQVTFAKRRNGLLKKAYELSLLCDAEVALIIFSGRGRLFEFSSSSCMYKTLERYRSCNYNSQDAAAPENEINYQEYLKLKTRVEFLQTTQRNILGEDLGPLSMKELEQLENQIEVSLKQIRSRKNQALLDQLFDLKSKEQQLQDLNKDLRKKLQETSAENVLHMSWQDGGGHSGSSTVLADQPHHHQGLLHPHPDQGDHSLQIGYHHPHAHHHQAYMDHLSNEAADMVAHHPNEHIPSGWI

B1: MADS55-EMSA-probe (dsDNA)
DNA 1: AGGCAGTATCTATCTATTTATTGCGTATAAACTAAAT
DNA 2: ATTTAGTTTATACGCAATAAATAGATAGATACTGCCT
As to B1, the binding result is “binds”.
